The values that follow come from patent publication US20260242852.

In the series the target is AsCas12a (Acidaminococcus sp.?) (UniProt U2UMQ6). Put plainly: BLI. Conditions: ΨDNA guide binding without target; NEB 2.1, 0.05% Triton X.

A word on the Kd: it is the constant that tells how readily two partners part at equilibrium. In turn, “AGCACCCAGTCCGCCCTGAGTAGATGTGAATCATCTTTAAT [AsCas12a GFP ΨDNA 3'-biotin]” came in with a Kd of 24.5 nM.
